{"source": "patent US20200174002A1", "about": "(ONCOTHERAPY SCIENCE, published 2020)", "key": {"[1]": {"target": "T1, soluble FZD10 protein without the signal peptide (the region of amino acids 21 to 161) (human, UniProt Q9ULW2 21-161)", "T1 construct": "Immunogen and ELISA screening antigen; also called recombinant human FZD10 protein; N-terminal extracellular domain peptide of FZD10", "T1 sequence": "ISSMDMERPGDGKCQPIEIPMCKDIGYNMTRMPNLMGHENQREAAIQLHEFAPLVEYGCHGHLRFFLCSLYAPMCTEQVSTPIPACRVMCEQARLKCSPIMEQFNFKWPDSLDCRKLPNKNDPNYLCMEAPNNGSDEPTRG", "assay": "ELISA screening of hybridomas on soluble FZD10 protein"}, "[2]": {"target": "T2, full length FZD10 protein (human) (human, UniProt Q9ULW2 21-581)", "T2 construct": "Live cells in flow cytometry; formalin-fixed paraffin sections in IHC", "T2 sequence": "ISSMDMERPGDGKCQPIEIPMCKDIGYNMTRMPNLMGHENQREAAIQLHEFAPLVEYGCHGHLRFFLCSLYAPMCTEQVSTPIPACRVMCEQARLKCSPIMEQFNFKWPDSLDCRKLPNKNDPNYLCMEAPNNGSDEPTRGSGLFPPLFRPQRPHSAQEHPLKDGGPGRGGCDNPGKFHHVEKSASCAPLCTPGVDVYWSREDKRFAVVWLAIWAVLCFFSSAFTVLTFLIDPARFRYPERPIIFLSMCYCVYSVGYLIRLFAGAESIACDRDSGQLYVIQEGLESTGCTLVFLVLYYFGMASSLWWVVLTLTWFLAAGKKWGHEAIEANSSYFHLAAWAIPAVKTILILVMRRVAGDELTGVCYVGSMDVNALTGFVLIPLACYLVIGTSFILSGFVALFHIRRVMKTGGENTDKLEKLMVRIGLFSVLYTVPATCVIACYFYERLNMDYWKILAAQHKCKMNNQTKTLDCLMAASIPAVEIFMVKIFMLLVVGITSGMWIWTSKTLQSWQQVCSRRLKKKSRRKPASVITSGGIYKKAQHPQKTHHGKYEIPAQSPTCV", "assay": "immunohistochemical staining, paraffin section of a clinical lung cancer specimen", "experimental": "For antigen retrieval treatment, sections immersed in Antigen Retrieval Solution pH9 (Nichirei Biosciences Inc.) were incubated at 125° C. for 30 seconds for FZD10/DLD1 and Mock/DLD1, and at 95° C. for 40 minutes for SYO1, T.T, H727, LoVo, COLO201, and clinical specimens. After incubation, they were allowed to stand at room temperature for 20 minutes, and then washed with running water for five minutes. The sections were immersed in 3.0% hydrogen peroxide for ten minutes to block endogenous peroxidases, and washed with Wash Buffer (TBS-T(Takara Bio)) for five minutes three times. Furthermore, to block nonspecific reactions, an appropriate amount of Protein Block Solution (Dako) was added dropwise onto the sections, and they were allowed to stand for ten minutes. […]\nThe specificity of the anti-FZD10 antibody of the present invention (10A8H4G4) in immunohistochemical staining was evaluated using paraffin sections prepared from mouse xenograft tumors of cancer cell lines and clinical lung cancer specimens. The expression of FZD10 protein and RNA in paraffin sections prepared from mouse xenograft tumors of SYO-1 and COLO201 and in cancerous and non-cancerous regions of clinical lung cancer specimens 1 to 6 was detected by immunohistochemical staining and real-time PCR, respectively, and the results are shown in FIG. 4."}}, "data": [{"binder": "anti-FZD10 antibody (10A8H4G4) (antibody, V domains shown, Mouse monoclonal antibody from hybridoma 10A8H4G4, purified from culture fluid on a Protein A column; it was detected with anti-mouse IgG (H+L); also called clone 10A8H4G4; FZD10Ab(10A8H4G4)) VH: not shown VL: DIVMTQSPSSLTVTAGEKVTMSCKSSQSLLNSGNQKNYLTWYQQKPGQPPKLLIYWASTRKSGVPDRFTGSGSGTDFTLTISSVQAEDLAVYYCQNDYSYPVTFGAGTKLELKR", "values": [{"measurement": "binding result", "setting": "[1]", "value": "binds"}, {"measurement": "binding result", "setting": "[2]", "value": "binds"}]}]}
